Assay results from patent US12723255B2, “Herbicide tolerance genes and methods of use thereof” (priority 2014, dated 2026).
Substitutions are numbered along the chain they refer to. Values joined by “and” are separate entries in the source; they are usually repeats but may differ in a detail not shown here. Equal entries are not always repeated.

B1: MON-HT55: engineered oxygenase protein, amino acid sequence SEQ ID NO:11 (protein)
chain: MHAALSPLSQRFERIAVQPLTGVLGAEITGVDLREPLDDSTWNEILDAFHTYQVIYFPGQAITNEQHIAFSRRFGPVDPVPLLKSIEGYPEVQMIRREANESGRVIGENWHTDSTFLDAPPAAVVMYAKEIPPYGGDTLFTSMYTAWETLSPTMQATIEGLNVVHSATRVFGSLYQAQNRRFSNTSVKVMDVDAGDRETVHPLVVTHPETGRKGLYVNQVYCQRIEGMSEKESEPLLSFLFAHATKPEFTCRVRWQEGDVLVWDNLCTQHYAVPDYAGKFRYLTRTTVGGVRPAR
B2: MON-HT7: engineered oxygenase protein, amino acid sequence SEQ ID NO:34 (protein)
chain: MHAALTPLTNKYRFIDVQPLTGVLGAEITGVDLREPLDDSTWNEILDAFHTYQVIYFPGQAITNEQHIAFSRRFGPVDPVPLLKSIEGYPEVQMIRREANESGRVIGDDWHADSTFLDAPPAAVVMRAIEVPEYGGDTGFLSMYSAWETLSPTMQATIEGLNVVHSATKVFGSLYQATNWRFSNTSVKVMDVDAGDRETVHPLVVTHPVTGRRALYCNQVYCQKIQGMTDAESKSLLQFLYEHATKFDFTCRVRWKKDQVLVWDNLCTMHRSVPDYAGKFRYLTRTTVAGDKPSR
B3: MON-HT8: engineered oxygenase protein, amino acid sequence SEQ ID NO:37 (protein)
chain: B2 chain with L82I, A112T, A277G, G278N, K279A
B4: MON-HT9: engineered oxygenase protein, amino acid sequence SEQ ID NO:40 (protein)
chain: MHAALTPLTNKYRFIDVQPLTGVLGAEITGVDLREPLDDSTWNEILDAFHTYQVIYFPAQQITNEQHISFSRRFGPVDPVPLLKSIEGYPEVQMIRREANESGRILGDDWHTDSTFLDAPPAAVVMRAIEVPEYGGDTGFLSMYSAWDTLSDTMKATIEGLNVVHSATRVFGSLYQAQNWRFSNTSVKVMDVDAGDRETVHPLVVSHPVTGRRALYCNQVYCQRIEGMTDAESKCLLQFLYEHATKFDFTCRVRWKKDQVLVWDNLCTMHRAVPDYAGKFRYLTRTTVAGDRPAR
B5: MON-HT10: engineered oxygenase protein, amino acid sequence SEQ ID NO:43 (protein)
chain: B4 chain with T21C, A59G, Q61A, S69A, R271L, A277D, R292K, A294S

Tests used:
[1] = assay type: physicochemical; conditions: buffer; for T1/2, temperature where 50% of the protein was unfolded, Buffer: pH 7.5
Method: A protein melting analysis was also conducted. For the protein melting determinations, purified enzyme was added to 96-well microtiter plates in standard storage buffer (30 mM Tris pH7.5, 150 mM NaCl) with or without 50 uM Fe2+ and 1.0 mM aKG. Protein unfolding was then detected with SYPRO® orange protein gel stain (Invitrogen™ catalog #S6651, Life Technologies, Grand Island, NY) in a BioRad CFX96™ Real time PCR machine (BioRad, Hercules, CA) with readings taken between 10° C. to 95° C. in 0.5° C. steps. […] In contrast, 50 uM Fe2+ and 1.0 mM aKG had little effect on the stability of any of the engineered proteins. MON-HT55, MON-HT3, MON-HT4, MON-HT6, and MON-HT10 had melting temperatures in the range of 41° C. to 48° C., which is below the melting temperature of the wild-type enzyme. MON-HT1, MON-HT2, MON-HT5, MON-HT7, MON-HT8, and MON-HT9 had melting temperatures between 58° C. and 67° C., which is 8° C. to 17° C. higher than the wild-type enzyme. For MON-HT7 and MON-HT1, the difference in melting point was 11° C. in buffer without Fe2+ and aKG and 8° C. in buffer with Fe2+ and aKG. This was surprising since there are only four amino acid differences between the two enzymes.
A protein melting analysis was conducted as detailed above. The melting temperatures of MON-HT13, MON-HT15, and MON-HT17 was similar to the melting temperature of MON-HT1 with T1/2 in buffer in the range of 55-58° C., and with T1/2 in buffer plus Fe2+ and aKG in the range of 60-62° C.

[2] = system: F1 hybrid maize plants; assay: efficacy field trial for quizalofop-P tolerance and clethodim sensitivity; assay type: in vivo; conditions: scale 0 to 100; for average injury rating, V8 Growth Stage, 1x Clethodim: clethodim 0.25 lb ai/acre at V8, volunteer control
Method: Separate trait efficacy field trials for quizalofop-P and 2,4-D were conducted at two locations cach with F1 hybrid transgenic plants produced by crossing an inbred plant containing maize event MON89034 with an R1 plant containing MON-HT55 (with a CTP), MON-HTI (with or without a CTP), MON-HT2 (with or without a CTP), MON-HT3 (with a CTP), MON-HT4 (with a CTP), MON-HT5 (with a CTP), MON-HT6 (with a CTP), or MON-HT7 (with a CTP). Transgenic F1 hybrid plants containing maize events NK603×MON89034 were used for comparison as a control.
In the efficacy field trial for quizalofop-P tolerance and clethodim sensitivity, one of four herbicide treatments was used: (1) quizalofop-P (Assure II) at 0.32 lb ai/acre (4×) plus 0.25% v/v non-ionic surfactant (NIS) applied at VE-V2 growth stage followed by the same at V4 growth stage followed by the same at V8 growth stage; (2) quizalofop-P at 0.64 lb ai/acre (8×) plus 0.25% v/v NIS applied at VE to V2 growth stage followed by the same at V4 growth stage followed by the same at V8 growth stage; (3) quizalofop-P at 1.28 lb ai/acre (16×) plus 0.25% v/v NIS applied at VE to V2 growth stage followed by the same at V4 growth stage followed by the same at V8growth stage; or (4) clethodim at 0.25 lb ai/acre (1×) plus 0.25% v/v NIS applied at V8 growth stage. Plots were visually rated 10-14 days after application for crop injury on a scale of 0 to 100with “0” being none and “100” being complete crop destruction. Tables 14 and 15 show the average injury ratings after herbicide application at V4 or V8 growth stage, respectively.

[3] = system: F1 hybrid maize plants; assay: efficacy field trial with segregating F1 hybrid plants; assay type: in vivo; conditions: for % Injury from V4 2,4-D / % Injury from V8 2,4-D: 2,4-D amine 2× at VE-V2 (plus quizalofop-P 0.5×), V4, V8; for % Injury from V4 Quizalofop / % Injury from V8 Quizalofop: quizalofop-P 2× at VE-V2, V4, V8
Method: Ten unique engineered proteins optimized for activity at higher temperatures were selected for maize transformation and analysis in plants. DNA constructs were produced for expressing these engineered proteins with codon usage optimized for monocot expression using methods known to those skilled in the art. Enhancers, promoters, leaders, introns, CTPs, and 3′UTRs were tested in various combinations with the engineered proteins in these DNA constructs. The DNA constructs were used to transform immature maize (LH244) embryos with these vectors using Agrobacterium tumifaciens and standard methods known in the art. Regenerated R0 transgenic plantlets were grown in the green house.
Transgenic R0 maize plants were screened by the application of quizalofop-P (2×) plus 2,4-D (2×) at 7 to 10 days following transplant into plugs (generally corresponding to V3-V4 growth stage). All constructs tested produced plants containing unique events that passed the RO screen. The R0 plants were selfed to generate R1 homozygous seed and the R0 was also used as the male to cross with inbred plants containing maize event MON89034 to generate segregating F1 hybrid seed for efficacy field trials.
An efficacy field trial was conducted with segregating F1 hybrid plants, with 50% hemizygous and 50% null for the transgene. Tolerance to quizalofop-P (2×) plus 2,4-D (2×) was assessed using two herbicide application regimens: (1) quizalofop-P (Assure II) at 0.16 lb ai/acre (2×) plus 0.25% v/v non-ionic surfactant (NIS) applied at VE-V2 growth stage followed by the same at V4 growth stage followed by the same at V8 growth stage and (2) 2,4-D amine at 2 lb ae/acre (2×) plus quizalofop-P at 0.04 lb ai/acre (0.5×) plus 0.25% v/v NIS applied at VE-V2 growth stage followed by 2,4-D amine at 2 lb ae/acre (2×) plus 0.25% v/v NIS applied at V4 growth stage followed by the same at V8 growth stage. The 50% of the plants that were null for transgene were removed by the first quizalofop-P application at VE-V2 growth stage. Plots were visually rated 10-14 days after application for crop injury on a scale of 0 to 100 with “0” being none and “100” being complete crop destruction. […] The percentage injury rating with 2× application of 2,4-D at V8 growth stage ranged from a high of 40% to a low of 0. Similarly, the percentage injury rating with 2× application of quizalofop-P at V8 growth stage ranged from a high of 90% to a low of 0. Variation in injury rating between plants expressing the same protein is likely due to variations in construct design or transgene insertion location.

[4] = 0.32 lb ai/acre at VE-V2, V4, V8, with CTP unless label says no CTP
[5] = 0.64 lb ai/acre at VE-V2, V4, V8, with CTP unless label says no CTP
[6] = 1.28 lb ai/acre at VE-V2, V4, V8, with CTP unless label says no CTP

Molecule	T1/2, temperature where 50% of the protein was unfolded, Buffer plus Fe2+ and aKG [1]	T1/2, temperature where 50% of the protein was unfolded, Buffer [1]	average injury rating, V8 Growth Stage, 1x Clethodim [2]	% Injury from V4 2,4-D ([3]; CTP A)	% Injury from V8 2,4-D ([3]; CTP A)	% Injury from V4 Quizalofop ([3]; CTP A)	% Injury from V8 Quizalofop ([3]; CTP A)	further results
B1	41 °C	41 °C	94.5 and 93.3	–	–	–	–	–
B2	67 °C	67 °C	93.3	21.6%	16.6%	31.2%	5%	average injury rating, V4 Growth Stage, 4x Quizalofop [2, 4]: 0.8; average injury rating, V8 Growth Stage, 4x Quizalofop [2, 4]: 1.5; average injury rating, V4 Growth Stage, 8x Quizalofop [2, 5]: 1.3; average injury rating, V8 Growth Stage, 8x Quizalofop [2, 5]: 0.8; average injury rating, V4 Growth Stage, 16x Quizalofop [2, 6]: 3.3; average injury rating, V8 Growth Stage, 16x Quizalofop [2, 6]: 5.5
B3	61 °C	61 °C	–	10%	10%	1.25%	1.25%	% Injury from V4 2,4-D ([3]; CTP B): 12.5%; % Injury from V8 2,4-D ([3]; CTP B): 11.67%; % Injury from V4 Quizalofop ([3]; CTP B): 9.17%; % Injury from V8 Quizalofop ([3]; CTP B): 8.33%; % Injury from V4 2,4-D ([3]; CTP C): 20%; % Injury from V8 2,4-D ([3]; CTP C): 21.25%; % Injury from V4 Quizalofop ([3]; CTP C): 30%; % Injury from V8 Quizalofop ([3]; CTP C): 32.5%; % Injury from V4 2,4-D ([3]; CTP None): 0%; % Injury from V8 2,4-D ([3]; CTP None): 0%; % Injury from V4 Quizalofop ([3]; CTP None): 85%; % Injury from V8 Quizalofop ([3]; CTP None): 90%
B4	60 °C	61 °C	–	20%	40%	5%	5%	–
B5	44 °C	44 °C	–	28%	38.33%	0%	0%	–
